Results: patent publication US20230287598A1 (TAURUS BIOSCIENCES, published 2023)

T1: CXCR1 (UniProt P25024 1-350, limits assumed)
T1 construct: whole, on cells; DiscoveRx PathHunter cell line; any reporter tag on the receptor is not described; also called CXCR1 receptor; CXCR1-U2OS
T1 sequence (looked up): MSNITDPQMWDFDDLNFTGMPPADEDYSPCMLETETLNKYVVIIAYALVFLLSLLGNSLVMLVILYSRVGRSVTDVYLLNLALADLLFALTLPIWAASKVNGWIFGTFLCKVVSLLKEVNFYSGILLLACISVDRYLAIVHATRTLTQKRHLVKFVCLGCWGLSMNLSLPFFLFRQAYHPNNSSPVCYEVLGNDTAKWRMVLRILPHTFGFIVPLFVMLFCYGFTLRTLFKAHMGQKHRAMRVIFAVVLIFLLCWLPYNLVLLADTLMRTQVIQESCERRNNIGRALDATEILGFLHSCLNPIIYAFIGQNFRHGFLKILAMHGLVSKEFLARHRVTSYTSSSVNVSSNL

B1: VH4-34+CDR3-IL8_CDR1 Cow_CDR2 E50S / VL1-51 S2A, T5N, P8S, A12G, A13S, P14L, D51G, N52D, N53T IgG (antibody)
VH: QVQLQQWGAGLLKPSETLSLTCTASGFSLSDKAVGWIRQPPGKGLEWIGSINHSGSTNYNPSLKSRVTISVDTSKNQFSLKLSSVTAADTAVYYCTSVHQETKKYQSPRSAKELRCQCIKTYSKPFHPKFIKELRVIESGPHCANTEIIVKLSDGRELCLDPKENWVQRVVEKFLKRAENSGSGSYTYNYEWHVDVWGQGLLVTVSSAS
light: QAVLNQPSSVSGSLGQKVTISCSGSSSNIGNNYVSWYQQLPGTAPKLLIYGDTKRPSGIPDRFSGSKSGTSATLGITGLQTGDEADYYCASAEDSSSNAVFGSGTTLTVLGQPKAAPSVTLFPPSSEELQANKATLVCLISDFYPGAVTVAWKADSSPVKAGVETTTPSKQSNNKYAASSYLSLTPEQWKSHRSYSCQVTHEGSTVEKTVAPTECS
B2: VH4-34+CDR3-IL8_CDR1-G31DY32K_CDR2-E50S_Q5RQ6E / VL1-51 I29V, N32G, K46R, L47T, D51G, N52D, N53T IgG (antibody)
VH: QVQLREWGAGLLKPSETLSLTCAVYGGSFSDKYWSWIRQPPGKGLEWIGSINHSGSTNYNPSLKSRVTISVDTSKNQFSLKLSSVTAADTAVYYCTSVHQETKKYQSPRSAKELRCQCIKTYSKPFHPKFIKELRVIESGPHCANTEIIVKLSDGRELCLDPKENWVQRVVEKFLKRAENSGSGSYTYNYEWHVDVWGQGLLVTVSS
light: QSVLTQPPSVSAAPGQKVTISCSGSSSNVGNGYVSWYQQLPGTAPRTLIYGDTKRPSGIPDRFSGSKSGTSATLGITGLQTGDEADYYCASAEDSSSNAVFGSGTTLTVLGQPKAAPSVTLFPPSSEELQANKATLVCLISDFYPGAVTVAWKADSSPVKAGVETTTPSKQSNNKYAASSYLSLTPEQWKSHRSYSCQVTHEGSTVEKTVAPTECS
B3: VH4-34+CDR3-IL8_CDR1-Cow_CDR2-Cow_Q5RQ6E / VL1-51 I29V, N32G, K46R, L47T, D51G, N52D, N53T IgG (antibody)
VH: QVQLREWGAGLLKPSETLSLTCTASGFSLSDKAVGWIRQPPGKGLEWLGSIDTGGNTGYNPSLKSRVTISVDTSKNQFSLKLSSVTAADTAVYYCTSVHQETKKYQSPRSAKELRCQCIKTYSKPFHPKFIKELRVIESGPHCANTEIIVKLSDGRELCLDPKENWVQRVVEKFLKRAENSGSGSYTYNYEWHVDVWGQGLLVTVSS
light: QSVLTQPPSVSAAPGQKVTISCSGSSSNVGNGYVSWYQQLPGTAPRTLIYGDTKRPSGIPDRFSGSKSGTSATLGITGLQTGDEADYYCASAEDSSSNAVFGSGTTLTVLGQPKAAPSVTLFPPSSEELQANKATLVCLISDFYPGAVTVAWKADSSPVKAGVETTTPSKQSNNKYAASSYLSLTPEQWKSHRSYSCQVTHEGSTVEKTVAPTECS
B4: VH4-34+CDR3-IL8_CDR1-G31DY32K_Q5RQ6E / VL1-51 S2A, T5N, P8S, A12G, A13S, P14L, D51G, N52D, N53T IgG (antibody)
VH: QVQLREWGAGLLKPSETLSLTCAVYGGSFSDKYWSWIRQPPGKGLEWIGEINHSGSTNYNPSLKSRVTISVDTSKNQFSLKLSSVTAADTAVYYCTSVHQETKKYQSPRSAKELRCQCIKTYSKPFHPKFIKELRVIESGPHCANTEIIVKLSDGRELCLDPKENWVQRVVEKFLKRAENSGSGSYTYNYEWHVDVWGQGLLVTVSS
light: QAVLNQPSSVSGSLGQKVTISCSGSSSNIGNNYVSWYQQLPGTAPKLLIYGDTKRPSGIPDRFSGSKSGTSATLGITGLQTGDEADYYCASAEDSSSNAVFGSGTTLTVLGQPKAAPSVTLFPPSSEELQANKATLVCLISDFYPGAVTVAWKADSSPVKAGVETTTPSKQSNNKYAASSYLSLTPEQWKSHRSYSCQVTHEGSTVEKTVAPTECS
B5: VH4-34+CDR3-IL8_Q5RQ6E / VL1-51 S2A, T5N, P8S, A12G, A13S, P14L, K46R, L47T, D51G, N52D, N53T IgG (antibody)
VH: QVQLREWGAGLLKPSETLSLTCAVYGGSFSGYYWSWIRQPPGKGLEWIGEINHSGSTNYNPSLKSRVTISVDTSKNQFSLKLSSVTAADTAVYYCTSVHQETKKYQSPRSAKELRCQCIKTYSKPFHPKFIKELRVIESGPHCANTEIIVKLSDGRELCLDPKENWVQRVVEKFLKRAENSGSGSYTYNYEWHVDVWGQGLLVTVSS
light: QAVLNQPSSVSGSLGQKVTISCSGSSSNIGNNYVSWYQQLPGTAPRTLIYGDTKRPSGIPDRFSGSKSGTSATLGITGLQTGDEADYYCASAEDSSSNAVFGSGTTLTVLGQPKAAPSVTLFPPSSEELQANKATLVCLISDFYPGAVTVAWKADSSPVKAGVETTTPSKQSNNKYAASSYLSLTPEQWKSHRSYSCQVTHEGSTVEKTVAPTECS
notes: nt HC 490, LC 486
B6: VH4-34+CDR3-IL8_CDR2-Cow_Q5RQ6E / VL1-51 S2A, T5N, P8S, A12G, A13S, P14L, K46R, L47T, D51G, N52D, N53T, K54S, P56A IgG (antibody)
VH: QVQLREWGAGLLKPSETLSLTCAVYGGSFSGYYWSWIRQPPGKGLEWLGSIDTGGNTGYNPSLKSRVTISVDTSKNQFSLKLSSVTAADTAVYYCTSVHQETKKYQSPRSAKELRCQCIKTYSKPFHPKFIKELRVIESGPHCANTEIIVKLSDGRELCLDPKENWVQRVVEKFLKRAENSGSGSYTYNYEWHVDVWGQGLLVTVSS
light: QAVLNQPSSVSGSLGQKVTISCSGSSSNIGNNYVSWYQQLPGTAPRTLIYGDTSRASGIPDRFSGSKSGTSATLGITGLQTGDEADYYCASAEDSSSNAVFGSGTTLTVLGQPKAAPSVTLFPPSSEELQANKATLVCLISDFYPGAVTVAWKADSSPVKAGVETTTPSKQSNNKYAASSYLSLTPEQWKSHRSYSCQVTHEGSTVEKTVAPTECS
B7: VH4-34+CDR3-IL8_Q5RQ6E / VL1-51 S2A, T5N, P8S, A12G, A13S, P14L, K46R, L47T, D51G, N52D, N53T, K54S, P56A IgG (antibody)
VH: QVQLREWGAGLLKPSETLSLTCAVYGGSFSGYYWSWIRQPPGKGLEWIGEINHSGSTNYNPSLKSRVTISVDTSKNQFSLKLSSVTAADTAVYYCTSVHQETKKYQSPRSAKELRCQCIKTYSKPFHPKFIKELRVIESGPHCANTEIIVKLSDGRELCLDPKENWVQRVVEKFLKRAENSGSGSYTYNYEWHVDVWGQGLLVTVSS
light: QAVLNQPSSVSGSLGQKVTISCSGSSSNIGNNYVSWYQQLPGTAPRTLIYGDTSRASGIPDRFSGSKSGTSATLGITGLQTGDEADYYCASAEDSSSNAVFGSGTTLTVLGQPKAAPSVTLFPPSSEELQANKATLVCLISDFYPGAVTVAWKADSSPVKAGVETTTPSKQSNNKYAASSYLSLTPEQWKSHRSYSCQVTHEGSTVEKTVAPTECS
B8: VH4-34+CDR3-IL8_CDR2-E50S_Q5RQ6E / VL1-51 S2A, T5N, P8S, A12G, A13S, P14L, K46R, L47T, D51G, N52D, N53T, K54S, P56A IgG (antibody)
VH: QVQLREWGAGLLKPSETLSLTCAVYGGSFSGYYWSWIRQPPGKGLEWIGSINHSGSTNYNPSLKSRVTISVDTSKNQFSLKLSSVTAADTAVYYCTSVHQETKKYQSPRSAKELRCQCIKTYSKPFHPKFIKELRVIESGPHCANTEIIVKLSDGRELCLDPKENWVQRVVEKFLKRAENSGSGSYTYNYEWHVDVWGQGLLVTVSS
light: QAVLNQPSSVSGSLGQKVTISCSGSSSNIGNNYVSWYQQLPGTAPRTLIYGDTSRASGIPDRFSGSKSGTSATLGITGLQTGDEADYYCASAEDSSSNAVFGSGTTLTVLGQPKAAPSVTLFPPSSEELQANKATLVCLISDFYPGAVTVAWKADSSPVKAGVETTTPSKQSNNKYAASSYLSLTPEQWKSHRSYSCQVTHEGSTVEKTVAPTECS
B9: VH4-34+CDR3-IL8_CDR1-G31DY32K_Q5RQ6E / VL1-51 S2A, T5N, P8S, A12G, A13S, P14L, K46R, L47T, D51G, N52D, N53T, K54S, P56A IgG (antibody)
VH: QVQLREWGAGLLKPSETLSLTCAVYGGSFSDKYWSWIRQPPGKGLEWIGEINHSGSTNYNPSLKSRVTISVDTSKNQFSLKLSSVTAADTAVYYCTSVHQETKKYQSPRSAKELRCQCIKTYSKPFHPKFIKELRVIESGPHCANTEIIVKLSDGRELCLDPKENWVQRVVEKFLKRAENSGSGSYTYNYEWHVDVWGQGLLVTVSS
light: QAVLNQPSSVSGSLGQKVTISCSGSSSNIGNNYVSWYQQLPGTAPRTLIYGDTSRASGIPDRFSGSKSGTSATLGITGLQTGDEADYYCASAEDSSSNAVFGSGTTLTVLGQPKAAPSVTLFPPSSEELQANKATLVCLISDFYPGAVTVAWKADSSPVKAGVETTTPSKQSNNKYAASSYLSLTPEQWKSHRSYSCQVTHEGSTVEKTVAPTECS

The binders below were run against T1, CXCR1 (assay: flow cytometry, supernatant at 5 nM IgG).

In the case of B1, the “Specific Binding (CXCR1-Cell median AFU / Parental Cell median AFU)” value is reported as 6.

Target: T1, CXCR1
Assay: flow cytometry, supernatant at 5 nM IgG
Remark: another data set of the same source

In order of falling “Specific Binding (CXCR1-Cell median AFU / Parental Cell median AFU)” value:
1. B5  10
2. B7  3
3. B4  2
4. B9  2
5. B2  1
6. B3  1
7. B6  1
8. B8  1
